# Experimental data from patent US20240034790A1 (INNOBATION BIO, published 2024).
# Changes are numbered by the printed parent chain.
# B1: 5A4 antibody (antibody, V domains shown)
# VH: QVQLQQPGPELVRPGASVKMSCKASGYTFTNYWIHWVKQRPGQGLEWIGMIDPSNSATRLNQKFKDKATLNVDKSSNTAYMQLSSLTSEDSAVYYCARGGFAFDSWGQGTTLTVSS
# VL: DVLMTQTPLSLPVSLGDQASISCRSSQSLVHSNGNTYLHWYLQKPGQSPKLLIYKVSNRFSGVPDRFSGSGSGTDFTLKISRVEAEDLGVYFCSQSTHVPWTFGGGTKLEIK
# notes: Hybridoma monoclonal antibody detected with anti-mouse IgG
# B2: 3H3 antibody (antibody, V domains shown)
# VH: B1 VH with Q1E, I34M, A57E, Y95S
# VL: B1 VL with S32N, S68R
# notes: as for B1
# B3: 4E12 antibody (antibody, V domains shown)
# VH: QIQFAQSGPELKKSGETVKISCRASGYTFTNYGMNWVKQAPGKGLKWMGWINTYTGEPTYADDFKGRFAFSLETSASTAYLQINNLKNEDMATYFCARGGGRGAMDYWGQGTTLTVSS
# VL: B1 VL with L29I, H39D, N58K, F92Y, S94F, S96G, T97S, W101F, G105S
# notes: as for B1
# B4: 5H4 antibody (antibody, V domains shown)
# VH: QVQLQQPGAELVKPGTSVKMSCKASGYTFTNYWMHWVKQRPGQVLEWIGVIDPSDSYTSYNQKFKGKATLTVDTSSTTAYMQLSSLTSEDSAVYYCTRGGKRAMDYWGQGTSVTVSS
# VL: B1 VL with W101F, G105S
# notes: as for B1
# B5: 3A5 antibody (antibody, V domains shown)
# VH: B4 VH with Q1E, T16A, N31S, V37M, K38N, V44G, T77S, T97A
# VL: B1 VL with W101F, G105S
# notes: as for B1
# B6: 1E7 antibody (antibody, V domains shown)
# VH: EVQLQQSGPELIKPGASVKMSCKASGYIFTSYVVYWVKQKPGQGLEWIGYINPYNDGTKYNEKFKGKATLTSYKSSSTAYMELSSLTSADSAVYYCARGGFTTDYWGQGTTLTVSS
# VL: B1 VL with W101Y
# notes: as for B1
# B7: 7C7 antibody (antibody, V domains shown)
# VH: EVQLQQSGPELVKPGASVRMSCKASGYTFTSYVMHWVKQKPGQGLEWIGYINPYNDGTKYNEKFKGKSTLTSDKSSSTAYMELSSLTSEDSAVYCCARGRNRYDSWFAYWGQGTLVTVSA
# VL: DIQMTQTTSSLSASLGDRVTISCRASQDISNYLNWYQQKPDGTVKLLIYYTSRLHSGVPSRFSGSGSGTDYSLTISNLEQEDIATYFCQQGNTLPWTFGGGTKLEIK
# notes: Monoclonal antibody from a hybridoma (mouse myeloma fusion), detected with anti-mouse IgG; In the ELISA hybridoma culture solution was used
# Molecular target: T1, CD47 on breast cancer cell line MCF-7 (UniProt Q08722 19-323, limits assumed)
# T1 construct: whole, on cells; Endogenous CD47 of MCF-7 cells; also called CD47-expressing tumor cells (MCF-7); CD47-expressing cells
# Experiment: flow cytometry on MCF-7 cells, 1 ug antibody, PE anti-mouse IgG
# Procedure: First, 1×10⁷ of breast cancer cell line MCF-7 expressing CD47 and 1 μg of 7C7, 5H4, […], 3H3, 3A5, and 1E7 antibody were reacted for 30 minutes, respectively, and then stained on surface with a secondary antibody. After staining, it was measured by flow cytometry.
# As a positive control, CD47 antibody (Biolegend PE anti-human CD47, cat# 323108, 5 μl) was used, and as a secondary antibody, PE-conjugated anti-mouse IgG antibody (PE-conjugated goat anti-mouse IgG; Biolegend Inc., cat# 405307, USA, 5 μl) was used.
# T1 sequence (Q08722 19-323 limits assumed): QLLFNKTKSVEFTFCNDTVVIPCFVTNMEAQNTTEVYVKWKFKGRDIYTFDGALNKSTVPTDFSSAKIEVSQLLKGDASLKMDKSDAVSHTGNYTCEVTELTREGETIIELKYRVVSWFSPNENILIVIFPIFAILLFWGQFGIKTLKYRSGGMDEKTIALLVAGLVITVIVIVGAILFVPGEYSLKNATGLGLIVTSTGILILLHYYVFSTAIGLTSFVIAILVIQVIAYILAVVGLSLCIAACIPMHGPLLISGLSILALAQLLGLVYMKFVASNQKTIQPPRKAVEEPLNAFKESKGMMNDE
Molecule,Mean,Median
B1,16000,14700
B2,18000,16500
B3,6030,5380
B4,15500,14300
B5,15000,13900
B6,16100,14900
B7,6820,6110

# Molecular target: T1, CD47 on breast cancer cell line MCF-7
# Experiment: flow cytometry on MCF-7 cells, secondary antibody alone (background control)
Molecule,Mean,Median
"PE-conjugated goat anti-mouse IgG (Biolegend Inc., cat# 405307) (antibody)",80,73.9

# Molecular target: T2, CD47 protein (Acrobiosystems, cat#CD7-HA2E9) (UniProt Q08722 19-139)
# T2 construct: Bought recombinant protein, used as immunogen and as ELISA coating (100 ng/well); also called CD47 peptide; CD47 antigen
# Experiment: ELISA, CD47 protein coated 100 ng/well, 3 ul hybridoma culture solution, anti-mIgG-HRP
# Procedure: 3 μl of hybridoma cell culture solution of each clone for producing 7C7, 5H4, 5A4, 4E12, 3H3, 3A5, or 1E7 antibody was treated in each well, and then reacted at room temperature for 2 hours, and then washed 3 times with 1× PBST. Secondary antibody ([…], 1:10,000) was treated and reacted at room temperature for 30 minutes, washed 3 times with 1× PBST, and then treated with TMB for color development and reacted at room temperature for 5 minutes. Finally, the reaction was terminated by treatment with a stop solution of 1N H₂SO₄, and then the absorbance was measured at 450 nm.
# T2 sequence (Q08722 19-139 limits assumed): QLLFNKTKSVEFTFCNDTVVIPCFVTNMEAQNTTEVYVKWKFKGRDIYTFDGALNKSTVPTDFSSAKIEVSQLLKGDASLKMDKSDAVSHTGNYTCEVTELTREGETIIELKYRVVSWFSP
row,Molecule,OD450 measurements
1,B1,1.93 OD450
2,B2,1.97 OD450
3,B3,2.15 OD450
4,B4,1.91 OD450
5,B5,2.01 OD450
6,B6,2.14 OD450
7,B7,1.98 OD450
